# Assay results as given in article PMC10311840, “Purification and characterization of inorganic pyrophosphatase for in vitro RNA transcription” (Biochemistry and cell biology = Biochimie et biologie …, 2022).
# Where “and” joins values, the source holds several entries; their conditions need not be identical. Equal values may be shown once.
# B1: yeast inorganic pyrophosphatase (enzyme)
# chain: TYTTRQIGAKNTLEYKVYIEKDGKPVSAFHDIPLYADKENNIFNMVVEIPRWTNAKLEITKEETLNPIIQDTKKGKLRFVRNCFPHHGYIHNYGAFPQTWEDPNVSHPETKAVGDNDPIDVLEIGETIAYTGQVKQVKALGIMALLDEGETDWKVIAIDINDPLAPKLNDIEDVEKYFPGLLRATNEWFRIYKIPDGKPENQFAFSGEAKNKKYALDIIKETHDSWKQLIAGKSSDSKGIDLTNVTLPDTPTYSKAASDAIPPASPKADAPIDKSIDKWFFISGSV
# notes: inorganic pyrophosphatase, product of the yeast gene IPP1, family 1 iPPase (EC 3.6.1.1); expressed from plasmid pET29b-IPP1-His; no cleavage is described; also called iPPase; yeast iPPase
# Key:
# [1] = target: the molecule itself; test: SEC-MALS; SEC-MALS-DLS; Superdex 200 Increase 10/300 GL; 355 umol/L affinity-purified iPPase injected in 500 uL; 25 C; 80 mmol/L Tris-HCl pH 7.5, 30 mmol/L MgCl2, 4 mmol/L spermidine, 20 mmol/L NaCl, 4 mmol/L DTT; self-association, dimer, tetramer and hexamer peaks
# [2] = target: the molecule itself; test: SEC-SAXS; HPLC-SAXS at Diamond B21; 50 uL of 450 umol/L iPPase on Superdex 200 Increase 3.2/300 GL; dimer and tetramer peaks analysed, hexamer peak not usable; self-association
protein,measurement,setting,value
B1,stoichiometry N,[1],2 and 6
same,stoichiometry N,[2],4
